In patent US20030088058A1, “ISOPENICILLIN N SYNTHETASE AND DEACETOXYCEPHALOSPORIN C SYNTHETASE ENZYMES AND METHODS” (priority 1996, published 2003):

Assays:
[1] = tested on: DAOCS; assay: Specific activity of DAOCS mutants by turnover of α-[14C]-ketoglutarate with penicillin substrates; format: biochemical
Procedure: (§1) Almost all the mutants expressed well, except R88I, R88Q and R87Q/R287Q whereby the expression level was only about half of others. Generally the expression level of colonies was about 10˜20% of soluble protein at 27° C. Moreover, recombinant enzyme of P168V mutant was insoluble. These mutant enzymes were purified to ˜60-70% purity with Resouce-Q column (Phamacia). The activity of each mutant with respect to penicillin N and its side-chain analogues was analysed by bioassay. […] Screening of the substrate conversion of penicillins mutants was also performed using a assay with radiolabelled α-ketoglutarate. The reaction conditions were the same as for bioassay except that [^14C]-α-ketoglutarate was used.

[2] = tested on: E. coli X580 cells; assay: Hole-plate bioassay containing penicillinase, on enzyme reaction products; format: cell-based; settings: products of the reaction with penicillin G; hole-plate assay with penicillinase
Procedure: as §1

[3] = biological target: DAOCS (Streptomyces clavuligerus, UniProt P18548); settings: compared with conversion of penicillin N to DAOC; cited from earlier work
[4] = Expression of recombinant DAOCS mutants, solubility of the enzyme; settings: expressed at 27° C.
Excerpt: A U.S.E mutagenesis kit (Phamacia) was used for all the mutagenesis reactions and a Pst I restriction site on the pET vector was selected. Selection of single and double mutants were successfully performed from colonies by restriction enzyme digestion. (Sambrook et al, Molecular Cloning, A Laboratory Manual, Cold Spring Harbour, USA, 1989). […] Mutations of DAOCS (Table 1) were confirmed by sequencing according to the dideoxy method of Sanger. Mutants were designed after study of the IPNS-Mn^2+ and the IPNS-Fe(II)-ACV structures. Polar residues with which the side chain D-α-aminoadipoyl (carboxylate and amino groups) might bind to were identified.
as §1

B1: Wild type: unmodified deacetoxycephalosporin C synthase (DAOCS, expandase) (protein, UniProt P18548 1-311, looked up)
Deacetoxycephalosporin C …: MDTTVPTFSLAELQQGLHQDEFRRCLRDKGLFYLTDCGLTDTELKSAKDLVIDFFEHGSEAEKRAVTSPVPTMRRGFTGLESESTAQITNTGSYSDYSMCYSMGTADNLFPSGDFERIWTQYFDRQYTASRAVAREVLRATGTEPDGGVEAFLDCEPLLRFRYFPQVPEHRSAEEQPLRMAPHYDLSMVTLIQQTPCANGFVSLQAEVGGAFTDLPYRPDAVLVFCGAIATLVTGGQVKAPRHHVAAPRRDQIAGSSRTSSVFFLRPNADFTFSVPLARECGFDVSLDGETATFQDWIGGNYVNIRRTSKA
Molecule B1 has a Specific activity ([1]; substrate 6-Aminopenicillanic acid (6-APA)) of 1.0 ± 0.2 nmol/min/mg, a Specific activity ([1]; substrate Adipyl-6-APA) of 2.7 nmol/min/mg and a Specific activity ([1]; substrate Ammoxicillin) of 1.4 ± 0.6 nmol/min/mg. The Specific activity ([1]; substrate Ampicillin) was 0 nmol/min/mg, the Specific activity ([1]; substrate Carbenicillin) was 0 nmol/min/mg and the Specific activity ([1]; substrate Cloxacillin) was 1.6 ± 0.6 nmol/min/mg. For the same molecule, the Specific activity ([1]; substrate Methicillin) was 0 nmol/min/mg, the Specific activity ([1]; substrate Penicillin G) was 5.1 ± 0.4 nmol/min/mg and the Specific activity ([1]; substrate Penicillin N, uncoupled decarboxylation subtracted) was 6.4 nmol/min/mg. The Specific activity ([1]; substrate Penicillin V) was 5.3 ± 0.3 nmol/min/mg, the “Oxacillin accepted as substrate (in words)” value ([1]; substrate oxacillin) was “neither oxacillin nor piperacillin are substrates” and the Specific activity ([1]; substrate oxacillin) was 0 nmol/min/mg. For the same molecule, the “Piperacillin accepted as substrate (in words)” value ([1]; substrate piperacillin) was “neither oxacillin nor piperacillin are substrates”, the Specific activity ([1]; substrate piperacillin) was 0 nmol/min/mg and the “Inhibition of growth of E. coli X580 cells” value [2] was “showed the same inhibition”. The “Efficiency of conversion of penicillin G to phenylacetylcephalosporin C” value [3] was “much less efficient”.

B2: P168V: DAOCS mutant whose recombinant enzyme was insoluble (protein, UniProt P18548 1-311, looked up, variant P168V)
Deacetoxycephalosporin C …: MDTTVPTFSLAELQQGLHQDEFRRCLRDKGLFYLTDCGLTDTELKSAKDLVIDFFEHGSEAEKRAVTSPVPTMRRGFTGLESESTAQITNTGSYSDYSMCYSMGTADNLFPSGDFERIWTQYFDRQYTASRAVAREVLRATGTEPDGGVEAFLDCEPLLRFRYFPQVVEHRSAEEQPLRMAPHYDLSMVTLIQQTPCANGFVSLQAEVGGAFTDLPYRPDAVLVFCGAIATLVTGGQVKAPRHHVAAPRRDQIAGSSRTSSVFFLRPNADFTFSVPLARECGFDVSLDGETATFQDWIGGNYVNIRRTSKA
In the case of B2, the “Solubility of recombinant enzyme” value [4] is reported as “insoluble”.
